By Kd is commonly meant the equilibrium constant for the complex coming apart. High values mean lower affinity, low ones higher affinity.

First the molecules themselves.
T1: EsCas13d, nuclease-dead (Eubacterium siraeum, UniProt B0MS50, R295A;H300A;R849A;H854A)
T1 sequence: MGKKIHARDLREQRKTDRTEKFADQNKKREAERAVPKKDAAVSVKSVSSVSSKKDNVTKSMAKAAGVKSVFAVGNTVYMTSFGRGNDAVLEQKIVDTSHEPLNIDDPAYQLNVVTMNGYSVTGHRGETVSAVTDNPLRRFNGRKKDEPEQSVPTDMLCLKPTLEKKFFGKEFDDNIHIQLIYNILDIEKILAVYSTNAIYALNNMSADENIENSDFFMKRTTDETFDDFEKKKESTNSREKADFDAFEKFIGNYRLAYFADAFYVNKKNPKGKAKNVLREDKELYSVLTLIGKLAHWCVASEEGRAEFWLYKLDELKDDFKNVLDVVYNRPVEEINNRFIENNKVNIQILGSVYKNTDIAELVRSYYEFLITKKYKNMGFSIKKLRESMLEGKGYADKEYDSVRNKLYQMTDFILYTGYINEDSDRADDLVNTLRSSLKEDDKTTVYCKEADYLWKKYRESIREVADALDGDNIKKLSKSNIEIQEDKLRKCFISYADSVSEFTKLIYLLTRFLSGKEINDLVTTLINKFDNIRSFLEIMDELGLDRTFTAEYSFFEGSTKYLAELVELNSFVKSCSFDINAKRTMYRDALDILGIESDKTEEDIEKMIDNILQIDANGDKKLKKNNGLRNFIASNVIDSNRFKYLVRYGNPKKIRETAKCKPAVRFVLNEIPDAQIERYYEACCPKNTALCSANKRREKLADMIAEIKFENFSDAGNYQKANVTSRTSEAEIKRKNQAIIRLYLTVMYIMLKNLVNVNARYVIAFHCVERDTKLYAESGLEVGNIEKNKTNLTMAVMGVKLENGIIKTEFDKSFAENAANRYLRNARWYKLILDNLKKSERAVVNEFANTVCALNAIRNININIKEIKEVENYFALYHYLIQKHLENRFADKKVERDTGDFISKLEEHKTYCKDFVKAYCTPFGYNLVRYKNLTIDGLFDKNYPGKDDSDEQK

B1: target 1 MT 5'PFS CUU 3'PFS UAA (mixed)
RNA 1: CACCCGUGCAAAAAUGCAGGGGUCUAAAACUGAGCGGAUAACCUCUCUAUGG
RNA 2: GGGAAUGGAUCCACAUCUACGAAUUCCUUCCAUAGAGAGGUUAUCCGCUCAUAAAGAUCGGAAGAGCACACGU
B2: target 1 MT 5'PFS AGA 3'PFS UAA (mixed)
RNA 1: CACCCGUGCAAAAAUGCAGGGGUCUAAAACUGAGCGGAUAACCUCUCUAUGG
RNA 2: GGGAAUGGAUCCACAUCUACGAAUUCAGACCAUAGAGAGGUUAUCCGCUCAUAAAGAUCGGAAGAGCACACGU
B3: target 1 MT 5'PFS CCG 3'PFS ACU (mixed)
RNA 1: CACCCGUGCAAAAAUGCAGGGGUCUAAAACUGAGCGGAUAACCUCUCUAUGG
RNA 2: GGGAAUGGAUCCACAUCUACGAAUUCCCGCCAUAGAGAGGUUAUCCGCUCAACUAGAUCGGAAGAGCACACGU
B4: target 1 MT 5'PFS GUG 3'PFS GAC (mixed)
RNA 1: CACCCGUGCAAAAAUGCAGGGGUCUAAAACUGAGCGGAUAACCUCUCUAUGG
RNA 2: GGGAAUGGAUCCACAUCUACGAAUUCGUGCCAUAGAGAGGUUAUCCGCUCAGACAGAUCGGAAGAGCACACGU
B5: target 1 MT 5'PFS UAC 3'PFS UCG (mixed)
RNA 1: CACCCGUGCAAAAAUGCAGGGGUCUAAAACUGAGCGGAUAACCUCUCUAUGG
RNA 2: GGGAAUGGAUCCACAUCUACGAAUUCUACCCAUAGAGAGGUUAUCCGCUCAUCGAGAUCGGAAGAGCACACGU
B6: target 1 MT 5'PFS GUG 3'PFS ACA (mixed)
RNA 1: CACCCGUGCAAAAAUGCAGGGGUCUAAAACUGAGCGGAUAACCUCUCUAUGG
RNA 2: GGGAAUGGAUCCACAUCUACGAAUUCGUGCCAUAGAGAGGUUAUCCGCUCAACAAGAUCGGAAGAGCACACGU
B7: target 1 insC 3' of 9,insA 3' of 5 (mixed)
RNA 1: CACCCGUGCAAAAAUGCAGGGGUCUAAAACUGAGCGGAUAACCUCUCUAUGG
RNA 2: GGGAAUGGAUCCACAUCUACGAAUUCGUACCAUAGAGAGGUUACUCCGACUCACCGAGAUCGGAAGAGCACACGU
B8: target 1 MT 5'PFS GGG 3'PFS UGA (mixed)
RNA 1: CACCCGUGCAAAAAUGCAGGGGUCUAAAACUGAGCGGAUAACCUCUCUAUGG
RNA 2: GGGAAUGGAUCCACAUCUACGAAUUCGGGCCAUAGAGAGGUUAUCCGCUCAUGAAGAUCGGAAGAGCACACGU
B9: target 1 MT 5'PFS GGG 3'PFS UGC (mixed)
RNA 1: CACCCGUGCAAAAAUGCAGGGGUCUAAAACUGAGCGGAUAACCUCUCUAUGG
RNA 2: GGGAAUGGAUCCACAUCUACGAAUUCGGGCCAUAGAGAGGUUAUCCGCUCAUGCAGAUCGGAAGAGCACACGU
B10: target 1 MT 5'PFS UAC 3'PFS UCC (mixed)
RNA 1: CACCCGUGCAAAAAUGCAGGGGUCUAAAACUGAGCGGAUAACCUCUCUAUGG
RNA 2: GGGAAUGGAUCCACAUCUACGAAUUCUACCCAUAGAGAGGUUAUCCGCUCAUCCAGAUCGGAAGAGCACACGU
B11: target 1 MT 5'PFS GGU 3'PFS UUC (mixed)
RNA 1: CACCCGUGCAAAAAUGCAGGGGUCUAAAACUGAGCGGAUAACCUCUCUAUGG
RNA 2: GGGAAUGGAUCCACAUCUACGAAUUCGGUCCAUAGAGAGGUUAUCCGCUCAUUCAGAUCGGAAGAGCACACGU
B12: target 1 G5U,A14G (mixed)
RNA 1: CACCCGUGCAAAAAUGCAGGGGUCUAAAACUGAGCGGAUAACCUCUCUAUGG
RNA 2: GGGAAUGGAUCCACAUCUACGAAUUCGUACCAUAGAGGGGUUAUCCUCUCACCGAGAUCGGAAGAGCACACGU
B13: target 1 MT 5'PFS GUG 3'PFS ACU (mixed)
RNA 1: CACCCGUGCAAAAAUGCAGGGGUCUAAAACUGAGCGGAUAACCUCUCUAUGG
RNA 2: GGGAAUGGAUCCACAUCUACGAAUUCGUGCCAUAGAGAGGUUAUCCGCUCAACUAGAUCGGAAGAGCACACGU
B14: target 1 insC 3' of 11,insG 3' of 9 (mixed)
RNA 1: CACCCGUGCAAAAAUGCAGGGGUCUAAAACUGAGCGGAUAACCUCUCUAUGG
RNA 2: GGGAAUGGAUCCACAUCUACGAAUUCGUACCAUAGAGAGGUCUAGUCCGCUCACCGAGAUCGGAAGAGCACACGU
B15: target 1 MT 5'PFS CUU 3'PFS UAG (mixed)
RNA 1: CACCCGUGCAAAAAUGCAGGGGUCUAAAACUGAGCGGAUAACCUCUCUAUGG
RNA 2: GGGAAUGGAUCCACAUCUACGAAUUCCUUCCAUAGAGAGGUUAUCCGCUCAUAGAGAUCGGAAGAGCACACGU
B16: target 1 MT 5'PFS GUG 3'PFS ACC (mixed)
RNA 1: CACCCGUGCAAAAAUGCAGGGGUCUAAAACUGAGCGGAUAACCUCUCUAUGG
RNA 2: GGGAAUGGAUCCACAUCUACGAAUUCGUGCCAUAGAGAGGUUAUCCGCUCAACCAGAUCGGAAGAGCACACGU
B17: target 1 MT 5'PFS GUG 3'PFS GAU (mixed)
RNA 1: CACCCGUGCAAAAAUGCAGGGGUCUAAAACUGAGCGGAUAACCUCUCUAUGG
RNA 2: GGGAAUGGAUCCACAUCUACGAAUUCGUGCCAUAGAGAGGUUAUCCGCUCAGAUAGAUCGGAAGAGCACACGU
B18: target 1 G17C (mixed)
RNA 1: CACCCGUGCAAAAAUGCAGGGGUCUAAAACUGAGCGGAUAACCUCUCUAUGG
RNA 2: GGGAAUGGAUCCACAUCUACGAAUUCGUACCAUACAGAGGUUAUCCGCUCACCGAGAUCGGAAGAGCACACGU
B19: target 1 MT 5'PFS AGA 3'PFS UAC (mixed)
RNA 1: CACCCGUGCAAAAAUGCAGGGGUCUAAAACUGAGCGGAUAACCUCUCUAUGG
RNA 2: GGGAAUGGAUCCACAUCUACGAAUUCAGACCAUAGAGAGGUUAUCCGCUCAUACAGAUCGGAAGAGCACACGU
B20: target 1 MT 5'PFS GAA 3'PFS CGA (mixed)
RNA 1: CACCCGUGCAAAAAUGCAGGGGUCUAAAACUGAGCGGAUAACCUCUCUAUGG
RNA 2: GGGAAUGGAUCCACAUCUACGAAUUCGAACCAUAGAGAGGUUAUCCGCUCACGAAGAUCGGAAGAGCACACGU
B21: target 1 MT 5'PFS GGG 3'PFS UGU (mixed)
RNA 1: CACCCGUGCAAAAAUGCAGGGGUCUAAAACUGAGCGGAUAACCUCUCUAUGG
RNA 2: GGGAAUGGAUCCACAUCUACGAAUUCGGGCCAUAGAGAGGUUAUCCGCUCAUGUAGAUCGGAAGAGCACACGU
B22: target 1 MT 5'PFS GUG 3'PFS GAA (mixed)
RNA 1: CACCCGUGCAAAAAUGCAGGGGUCUAAAACUGAGCGGAUAACCUCUCUAUGG
RNA 2: GGGAAUGGAUCCACAUCUACGAAUUCGUGCCAUAGAGAGGUUAUCCGCUCAGAAAGAUCGGAAGAGCACACGU
B23: target 1 MT 5'PFS GUG 3'PFS GAG (mixed)
RNA 1: CACCCGUGCAAAAAUGCAGGGGUCUAAAACUGAGCGGAUAACCUCUCUAUGG
RNA 2: GGGAAUGGAUCCACAUCUACGAAUUCGUGCCAUAGAGAGGUUAUCCGCUCAGAGAGAUCGGAAGAGCACACGU
B24: target 1 MT 5'PFS UCG 3'PFS UGC (mixed)
RNA 1: CACCCGUGCAAAAAUGCAGGGGUCUAAAACUGAGCGGAUAACCUCUCUAUGG
RNA 2: GGGAAUGGAUCCACAUCUACGAAUUCUCGCCAUAGAGAGGUUAUCCGCUCAUGCAGAUCGGAAGAGCACACGU
B25: target 1 MT 5'PFS CGC 3'PFS UCG (mixed)
RNA 1: CACCCGUGCAAAAAUGCAGGGGUCUAAAACUGAGCGGAUAACCUCUCUAUGG
RNA 2: GGGAAUGGAUCCACAUCUACGAAUUCCGCCCAUAGAGAGGUUAUCCGCUCAUCGAGAUCGGAAGAGCACACGU
B26: target 1 MT 5'PFS AGA 3'PFS UAG (mixed)
RNA 1: CACCCGUGCAAAAAUGCAGGGGUCUAAAACUGAGCGGAUAACCUCUCUAUGG
RNA 2: GGGAAUGGAUCCACAUCUACGAAUUCAGACCAUAGAGAGGUUAUCCGCUCAUAGAGAUCGGAAGAGCACACGU
B27: target 1 MT 5'PFS UGG 3'PFS CAU (mixed)
RNA 1: CACCCGUGCAAAAAUGCAGGGGUCUAAAACUGAGCGGAUAACCUCUCUAUGG
RNA 2: GGGAAUGGAUCCACAUCUACGAAUUCUGGCCAUAGAGAGGUUAUCCGCUCACAUAGAUCGGAAGAGCACACGU

The target of the data set is T1, EsCas13d, nuclease-dead. As to the kind of experiment: crRNA (strand 1, pre-loaded); Mg2+; 40 mM Tris-HCl pH 7.5, 150 mM NaCl, 6 mM MgCl2, 1 mM DTT, 0.1% Tween-20, 0.2 mg/ml BSA; 25 C; 10 min per concentration, then washed. Particulars: tags: His6-TwinStrep-SUMO cleaved; N-terminal SNAP kept (SNAP-Surface 488); label: 3' end held by stalled T7 RNA polymerase.
In the case of B1, binding was put at a Kd of 35 ± 11.5 nM.
B2 yielded a dissociation constant (Kd) of 45 ± 20 nM.
The value for B3 was approximately 4.9 nM; that for B4 was 17.2 ± 2.9 nM.
Next, B5: 21.3 ± 8.05 nM; B6: 24.1 ± 2.35 nM.
B7 displayed a dissociation constant (Kd) of 5.89 ± 0.35 nM.
The value for B8 was 24.5 ± 4 nM.
The value for B9 was 12.8 ± 1.3 nM; that for B10 was 12.5 ± 5 nM; that for B11 was 36 ± 6 nM.
For B12, the affinity, expressed as Kd, was 68 ± 7 nM.
Next, B13: 11.5 ± 0.75 nM.
B14 gave a Kd of 31.8 ± 2 nM.
The value for B15 was approximately 90 nM; that for B16 was 12.4 ± 1.1 nM; that for B17 was 15.4 ± 1.95 nM.
The value for B18 was 40 ± 8 nM; that for B19 was 40 ± 17 nM; that for B20 was approximately 85 nM.
The value for B21 was 43 ± 7.5 nM; that for B22 was 12.9 ± 1.4 nM.
B23 returned an equilibrium dissociation constant (Kd) of 18.8 ± 2.25 nM.
For the molecule B24, the dissociation constant Kd was approximately 50 nM.
The value for B25 was approximately 76 nM.
As to B26, the dissociation constant Kd was 35.5 ± 14 nM.
Next, B27: 80 ± 32 nM.
